According to publication PMC6426604, “First Betalain-Producing Bacteria Break the Exclusive Presence of the Pigments in the Plant Kingdom” (mBio, 2019):

Tested on: N[C@@H](Cc1ccc(O)c(O)c1)C(=O)O
Assay: purified protein
Assay type: biochemical, Gluconacetobacter diazotrophicus
Details: 50 mM sodium phosphate pH 6.5, 10 mM sodium ascorbate, 25 °C, air

Sequence of GdDODA (4,5-DODA from Gluconacetobacter diazotrophicus) (Gluconacetobacter diazotrophicus PA1 5) (chain, as listed by the source): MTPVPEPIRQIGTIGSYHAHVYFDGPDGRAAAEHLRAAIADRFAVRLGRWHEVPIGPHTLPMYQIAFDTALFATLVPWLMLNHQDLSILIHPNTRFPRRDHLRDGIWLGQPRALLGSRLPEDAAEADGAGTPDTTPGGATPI

GdDODA (4,5-DODA from Gluconacetobacter diazotrophicus) (Gluconacetobacter diazotrophicus PA1 5)
Km: 1360 ± 310 µM | kcat: 0.00833 ± 0.000317 s⁻¹
